Test results as given in paper PMC3813429.

target: HaALP, membrane bound alkaline phosphatase of Helicoverpa armigera (Helicoverpa armigera (endogenous in larval midgut)); test: SPR

First: Cry1Ac N510A (domain or fragment)
Second: Cry1Ac Q509A (domain or fragment)
The Kd of the first is 2-fold higher: 58.4 nM for the first, 29.6 nM for the second.

Compared with Cry1Ac R511A (domain or fragment), Cry1Ac W545A (domain or fragment) is 220-fold higher in Kd: 32 nM for the first, 7150 nM for the second. The first binds more tightly here.

Going from Cry1Ac Y513A (domain or fragment) to “Cry1Ac tetra mutant (Q509A-N510A-R511A.Y513A) (domain or fragment)”, the Kd rises from 223 nM to 2420 nM (11-fold).

“Cry1Ac triple mutant (Q509A-N510A-R511A) (domain or fragment)” was tested, and the Kd was 262 nM.

Compared with Cry1Ac N510A (domain or fragment), Cry1Ac Q509A (domain or fragment) is 4.2-fold higher in koff: 0.00136 s⁻¹ for the first, 0.00571 s⁻¹ for the second.

First: Cry1Ac R511A (domain or fragment)
Second: Cry1Ac W545A (domain or fragment)
The koff of the first is 3.8-fold lower: 0.00179 s⁻¹ for the first, 0.00688 s⁻¹ for the second.

Going from Cry1Ac Y513A (domain or fragment) to “Cry1Ac tetra mutant (Q509A-N510A-R511A.Y513A) (domain or fragment)”, the koff falls from 0.00147 s⁻¹ to 0.000184 s⁻¹ (8-fold).

For “Cry1Ac triple mutant (Q509A-N510A-R511A) (domain or fragment)”, the koff was 0.00269 s⁻¹.

First: Cry1Ac N510A (domain or fragment)
Second: Cry1Ac Q509A (domain or fragment)
The kon of the first is 8.3-fold lower: 23200 M⁻¹ s⁻¹ for the first, 193000 M⁻¹ s⁻¹ for the second.

Compared with Cry1Ac R511A (domain or fragment), Cry1Ac W545A (domain or fragment) is 58-fold lower in kon: 55800 M⁻¹ s⁻¹ for the first, 963 M⁻¹ s⁻¹ for the second.

Going from Cry1Ac Y513A (domain or fragment) to “Cry1Ac tetra mutant (Q509A-N510A-R511A.Y513A) (domain or fragment)”, the kon falls from 6610 M⁻¹ s⁻¹ to 75 M⁻¹ s⁻¹ (88-fold).

Substance “Cry1Ac triple mutant (Q509A-N510A-R511A) (domain or fragment)” has a kon of 10200 M⁻¹ s⁻¹.

target: HaALP, membrane bound alkaline phosphatase of Helicoverpa armigera (Helicoverpa armigera (endogenous in larval midgut)); test: not given

In the case of Cry1Ac W545A (domain or fragment), the LC50, insect bioassay on H. armigera neonates (toxin on artificial diet surface, 5 days) is reported as 34.1 µg/mL.
